Experimental data published in PMC3314626, “Crystal Structures of the Tetratricopeptide Repeat Domains of Kinesin Light Chains: Insight into Cargo Recognition Mechanisms” (PLoS ONE, 2012).

Legend:
Assay in all cases: ITC; peptide (1-3 mM) in the syringe injected into 60-130 uM KLC1-TPR or KLC2-TPR (or mutant) in the cell; 25 C; 20 mM Bis-Tris pH 6.5, 500 mM NaCl, 0.5 mM TCEP; one-site binding model
[1] = biological target: KLC1 TPR domain (kinesin light chain 1 tetratricopeptide repeat domain) (human) (UniProt Q07866)
[2] = biological target: KLC1-TPR N301A mutant (human) (UniProt Q07866)
[3] = biological target: KLC1-TPR N343S mutant (human) (UniProt Q07866)

Row | Kd [1] [µM] | dH [1] [kcal/mol] | stoichiometry N [1] | Kd [2] [µM] | dH [2] [kcal/mol] | stoichiometry N [2] | Kd [3] [µM] | dH [3] [kcal/mol] | stoichiometry N [3] | Binder
1 | 9.4 | -1.52 | 1.02 |  |  |  |  |  |  | Ac-EYTCPTEDIYLE-OH [JIP1 peptide (C-terminal residues of JNK-interacting protein 1)]
2 | 50.3 | -2.5 | 1.85 | 179 | -1.2 | 1.02 | 44.3 | -1.7 | 2.13 | Ac-EMDWDDSALT-OH [ALC1 peptide (alcadein-1)]
